# Bridges are numbered along the chain shown (N, C = ends). Where no end group is shown, it is not given here. [ ]: non-standard residue; d: D form. The star is where a group is joined. Acetyl(2-(4-imidazolyl)) = O=C(Cc1c[nH]cn1)*; Aib = CC(C)(N)C(=O)O
# T1: human GIP receptor (human, UniProt P48546 22-466)
# T1 sequence (looked up): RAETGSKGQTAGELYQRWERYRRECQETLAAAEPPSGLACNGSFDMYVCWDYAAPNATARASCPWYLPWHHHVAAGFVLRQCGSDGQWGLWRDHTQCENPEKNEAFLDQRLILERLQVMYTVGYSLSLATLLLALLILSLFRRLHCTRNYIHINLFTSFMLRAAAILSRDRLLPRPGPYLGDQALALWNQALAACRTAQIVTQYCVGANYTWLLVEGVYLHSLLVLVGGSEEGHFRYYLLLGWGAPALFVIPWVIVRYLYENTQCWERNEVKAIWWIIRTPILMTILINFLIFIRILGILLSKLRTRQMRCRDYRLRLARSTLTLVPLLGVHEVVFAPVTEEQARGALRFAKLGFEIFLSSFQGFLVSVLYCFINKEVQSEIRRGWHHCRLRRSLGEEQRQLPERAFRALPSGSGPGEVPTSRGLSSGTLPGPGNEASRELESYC
# B1: triple agonist of SEQ ID NO: 64 (peptide)
# peptide: Y[Aib]QGTFTSDYSKYLDECAAKEFVQWLLDHHPSSGQPPPS
# modifications: bridge 16-20; ends not checked
# B2: triple agonist of SEQ ID NO: 7 (peptide)
# peptide: H[Aib]QGTFTSDVSKYLDGQAAKEFVAWLLKGC
# modifications: ends and bridges not checked
# B3: triple agonist of SEQ ID NO: 65 (peptide)
# peptide: H[Aib]QGTFTSDYSKCLDEKRAKEFVQWLLDHHPSSGQPPPS
# modifications: bridge 16-20; ends not checked
# B4: triple agonist of SEQ ID NO: 66 (peptide)
# peptide: Y[Aib]QGTFTSDYSKYLDECRAKDFVQWLLDHHPSSGQPPPS
# modifications: bridge 16-20; ends not checked
# B5: triple agonist of SEQ ID NO: 68 (peptide)
# peptide: Y[Aib]QGTFTSDYSKCLDEKAAKEFVQWLLDHHPSSGQPPPS
# modifications: bridge 16-20; ends not checked
# B6: triple agonist of SEQ ID NO: 69 (peptide)
# peptide: Y[Aib]QGTFTSDYSKCLDERAAKEFVQWLLDHHPSSGQPPPS
# modifications: bridge 16-20; ends not checked
# B7: triple agonist of SEQ ID NO: 70 (peptide)
# peptide: Y[Aib]QGTFTSDYSKCLDEKRAKDFVQWLLDHHPSSGQPPPS
# modifications: bridge 16-20; ends not checked
# B8: triple agonist of SEQ ID NO: 71 (peptide)
# peptide: Y[Aib]QGTFTSDYSKYLDERACKDFVQWLLDHHPSSGQPPPS
# modifications: bridge 16-20; ends not checked
# B9: triple agonist of SEQ ID NO: 72 (peptide)
# peptide: Y[Aib]QGTFTSDCSKYLDERAAKDFVQWLLDHHPSSGQPPPS
# modifications: bridge 16-20; ends not checked
# B10: triple agonist of SEQ ID NO: 73 (peptide)
# peptide: [Acetyl(2-(4-imidazolyl))][Aib]QGTFTSDYSKYLDECRAKEFVQWLLDHHPSSGQPPPS
# modifications: bridge 16-20; ends not checked
# B11: triple agonist of SEQ ID NO: 74 (peptide)
# peptide: {Acetyl(2-(4-imidazolyl))}-[Aib]QGTFTSDYSKCLDEKRAKEFVQWLLDHHPSSGQPPPS
# modifications: bridge 15-19
# B12: triple agonist of SEQ ID NO: 8 (peptide)
# peptide: H[Aib]QGTFTSDVSKYLDGQAAQEFVAWLLKGC
# B13: triple agonist of SEQ ID NO: 75 (peptide)
# peptide: Y[Aib]QGTFTSDYSKYLDEKAAKEFVQWLLDHHPSSGQPPPSC
# modifications: bridge 16-20
# B14: triple agonist of SEQ ID NO: 76 (peptide)
# peptide: Y[Aib]QGTFTSDYSKYLDEKRAKDFVQWLLDHHPSSGQPPPSC
# modifications: bridge 16-20
# B15: triple agonist of SEQ ID NO: 77 (peptide)
# peptide: Y[Aib]QGTFTSDYSKYLDEKAAKDFVQWLLDHHPSSGQPPPSC
# modifications: bridge 16-20
# Target: human GCG receptor (human, UniProt P47871 26-477)
# Assay: cell-based or functional assay
# Chain of human GCG receptor (P47871 26-477): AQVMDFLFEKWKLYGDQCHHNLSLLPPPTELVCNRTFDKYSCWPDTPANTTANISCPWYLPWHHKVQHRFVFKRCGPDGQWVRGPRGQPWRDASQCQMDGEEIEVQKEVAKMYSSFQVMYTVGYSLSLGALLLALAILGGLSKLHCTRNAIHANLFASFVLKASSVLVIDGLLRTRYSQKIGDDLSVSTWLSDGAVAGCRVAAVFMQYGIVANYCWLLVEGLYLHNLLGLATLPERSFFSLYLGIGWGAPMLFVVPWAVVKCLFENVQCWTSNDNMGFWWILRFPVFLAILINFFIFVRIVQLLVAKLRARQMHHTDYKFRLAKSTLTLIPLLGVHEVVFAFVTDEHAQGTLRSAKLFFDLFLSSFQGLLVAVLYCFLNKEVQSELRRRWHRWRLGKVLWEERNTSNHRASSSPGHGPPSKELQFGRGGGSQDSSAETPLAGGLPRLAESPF
row,Binder,"In vitro activity (%) vs. Glucagon, cAMP EC50 [%]"
1,B1,60.1
2,B2,< 0.1
3,B3,25.2
4,B4,172
5,B5,8.8
6,B6,9.6
7,B7,71.3
8,B8,12.7
9,B9,1
10,B10,5.4
11,B11,0.9
12,B12,0.1
13,B13,8.5
14,B14,47.6
15,B15,12.2

# Target: T1, human GIP receptor
# Assay: cell-based or functional assay
row,Binder,"In vitro activity (%) vs. GIP, cAMP EC50 [%]"
1,B1,92.9
2,B2,< 0.1
3,B3,11.6
4,B4,17.2
5,B5,107
6,B6,62.8
7,B7,64.4
8,B8,94.7
9,B9,1.6
10,B10,3
11,B11,1
12,B12,< 0.1
13,B13,18
14,B14,11.7
15,B15,35.5

# Target: human GLP-1 receptor (human, UniProt P43220 24-463)
# Assay: cell-based or functional assay
row,Binder,"In vitro activity (%) vs. GLP-1, cAMP EC50 [%]"
1,B1,64.6
2,B2,13.7
3,B3,95.4
4,B4,15.8
5,B5,27.9
6,B6,24.3
7,B7,15.1
8,B8,90.1
9,B9,11.5
10,B10,22.6
11,B11,12.9
12,B12,14.2
13,B13,35.1
14,B14,10.3
15,B15,38.7
